{"source": "patent US8481032B2", "about": "“Lipocalin-2 antibodies for methods of treatment” (The University of Hong Kong, priority 2006, dated 2013)", "molecules": {"B1": {"name": "Lipocalin-2: recombinant murine lipocalin-2 expressed in BL21 cells, His6 tag and endotoxin removed (protein)", "chain": "QDSTQNLIPAPSLLTVPLQPDFRSDQFRGRWYVVGLAGNAVQKKTEGSFTMYSTIYELQENNSYNVTSILVRDQDQGCRYWIRTFVPSSRAGQFTLGNMHRYPQVQSYNVQVATTDYNQFAMVFFRKTSENKQYFKITLYGRTKELSPELKERFTRFAKSLGLKDDNIIFSVPTDQCIDN", "modifications": "left off: small tags and cut ends", "notes": "recombinant murine lipocalin-2 expressed in BL21 cells, His6 tag and endotoxin removed"}}, "key": {"T2DM patients": {"tested_on": "T2DM patients", "assay": "Rosiglitazone treatment of T2DM patients: serum lipocalin-2 and metabolic parameters", "format": "in vivo, human", "conditions": "32 T2DM patients, rosiglitazone 4 mg twice daily, 8 weeks", "description": "The affinity-purified anti-human or anti-murine lipocalin-2 IgG was biotinylated with a kit from Pierce and used as the detection antibodies. The unlabeled anti-human or anti-murine lipocalin-2 IgG was used for coating a 96-well microtiter plate overnight at 4° C. Human or mouse serum was diluted (1:50) into PBS, and 100 μl of the diluted samples or recombinant standards were applied to each well and incubated at 37° C. for 1 h. The plates were washed three times and then incubated with 100 μl of the detection antibody for another 2 h. After washing for another three times with PBS, the wells were incubated with streptavidin-conjugated horseradish peroxidase for 1 h and subsequently reacted with tetramethyl-benzidine reagent for 15 min. A total of 100 μl of 2 M H2SO4 was added to each well to stop the reaction, and the absorbance at 450 nm was measured. The intra- and inter-assay coefficients of variance were determined by measuring five serum samples in a total of six independent assays with duplicate determinations.\nThe effect of rosiglitazone on serum levels of lipocalin-2 was investigated in 32 T2DM patients (see Example 2) treated with this drug (4 mg twice daily) for 8 weeks."}, "L6 myotubes [1]": {"tested_on": "L6 myotubes", "assay": "2-deoxyglucose uptake in L6 myotubes", "format": "cell-based, rat", "description": "FIG. 6 is a bar graph of 2-deoxyglucose uptake (arbitrary units) in L6 myotubes treated without or with indicated concentrations of lipocalin-2 for 48 hr, and then stimulated without or with insulin for another 20 min. The rate of glucose uptake was measured by uptake of 2-deoxy-D-[^3H]glucose. * P<0.05 versus untreated cells; # P<0.05 versus cells treated with insulin alone (n=4-6).\n(§1) Rat L6 skeletal myoblasts were grown in α-minimum essential medium (αMEM) containing 10% (v/v) FBS and 1% antibiotic solution (100 units/ml penicillin, 100 μg/ml streptomycin, 250 ng/ml amphotericin B) in a humidified atmosphere of 95% air and 5% CO2 at 37° C. For differentiation to myotubes, cells were cultured in αMEM containing 2% (v/v) FBS for 5-7 days.\nCells were incubated with various concentration of lipocalin-2 for 20 h, subsequently serum-starved in the continued presence of lipocalin-2 for the final 4 h in 24-well plates prior to further treatment. Cells were then washed twice with PBS and treated with insulin or vehicle for 15 min. After treatments, glucose uptake was determined. Briefly, cells were incubated in transport solution (140 mM NaCl, 20 mM HEPES-Na, 2.5 mM MgSO4, 1 mM CaCl2, 5 mM KCl and 0.5 μCi/ml 2-deoxy-D-[^3H]glucose, pH 7.4) for 5 min at room temperature. Nonspecific uptake was measured in the presence of cytochalasin B (10 μM). Cells were then lysed with 1 M KOH, and aliquots were transferred to scintillation vials for ^3H radioactivity counting."}, "[2]": {"tested_on": "genes involved in glucose and lipid metabolism in skeletal muscle and liver", "assay": "mRNA expression of genes involved in glucose and lipid metabolism in skeletal muscle and liver of lipocalin-2-treated mice", "format": "in vivo, mouse", "conditions": "versus vehicle", "description": "Total RNA was isolated from mouse liver, epididymal adipose tissue and soleus muscle using the RNeasy kit (Qiagen). Subsequently, mRNA was reverse transcribed into cDNA using the oligo-dT primer (Roche). The relative gene abundance was quantified by Taqman real-time PCR using the pre-developed assay kits (Applied Biosystems, Foster city, CA). The reactions were performed on the ABI 7000 sequence detection system.\n(§2) To evaluate the effect of lipocalin-2 on glucose homeostasis and insulin sensitivity, normal C57 mice were treated with murine lipocalin-2 by intraperitoneal injection of the recombinant protein (5 mg protein/kg body weight, twice a day at 12 hr intervals).\nThe effects of lipocalin-2 on mRNA expression of several genes involved in glucose and lipid metabolism in skeletal muscle and liver were investigated (FIGS. 4A-4B)."}, "L6 myotubes [3]": {"tested_on": "L6 myotubes", "assay": "Fatty acid uptake, fatty acid oxidation and triglyceride accumulation in L6 myotubes", "format": "cell-based, rat", "description": "FIG. 5A is a bar graph of […] ^3H-palmitate uptake (fold over control) in differentiated L6 myotubes treated with the indicated concentrations of lipocalin-2 or vehicle for 48 hr. FIG. 5B is a bar graph of ^14C-oleate oxidation (fold over control) in differentiated L6 myotubes treated with the indicated concentrations of lipocalin-2 or vehicle for 48 hr. Fatty acid oxidation was quantified by the production of ^14CO2 from [1-^14C]oleate. * P<0.05; ** P<0.01 versus untreated cells.\nas §1\n[^3H]-palmitic acid (Amersham, Quebec, Canada) was used to determine fatty acid uptake as previously described (Bastie, C. C., et al. Diabetes, 53:2209-2216 (2004)). with slight modifications. […] After treatments, culture medium was removed and cells washed twice with wash buffer (140 mM NaCl, 20 mM HEPES-Na, 2.5 mM MgSO4, 1 mM CaCl2, 5 mM KCl pH 7.4, 0.1% defatted albumin) and once with HEPES buffer. Cells were subsequently incubated with transport solution (10 μM defatted albumin, 0.5 μCi/ml [^3H]-palmitic acid; FA:BSA ratio=2) for 1 minute at room temperature. Then the reaction was stopped by washing with pre-cold stop buffer (140 mM NaCl, 20 mM HEPES-Na, 2.5 mM MgSO4, 1 mM CaCl2, 5 mM KCl pH 7.4) Non-specific uptake was measured in the presence of excess palmitate (2 mM) and subtracted from all other values. Cells were then lysed with 1 M KOH and aliquots were transferred to scintillation vials for ^3H radioactivity counting."}, "C57 mice": {"tested_on": "C57 mice", "assay": "Chronic treatment of C57 mice with recombinant lipocalin-2: body weight, food intake, metabolic parameters, ipGTT and ITT", "format": "in vivo, mouse", "description": "Fasting (16 hr) plasma glucose levels and triglyceride (TG) concentrations were measured by using a Glucose (GO) assay kit (Sigma) and Triglyceride GPO reagent (Pointe Scientific Inc., Lincoln Park, Mich., USA) respectively. Fasting serum insulin concentrations were quantified by using the commercial ELISA kits from Mercodia AB (Uppsala, Sweden). Serum total cholesterol and free fatty acids (FFAs) were analyzed by using the kits from Wako (Richmond, Va., USA) and Roche Diagnostics respectively. TG contents in liver and soleus muscle were analyzed as described elsewhere (Ellis, B. A et al., Am J Physiol Endocrinol Metab. 279:E554-560 (2000); Xu, A., et al. J Clin Invest 112:91-100 (2003)).\nFor ipGTT, overnight fasted mice (16 hr) were given a glucose load by intraperitoneal injection (1 g glucose/kg body weight). For ITT, mice were starved for 6 h, and then intraperitonally injected with insulin (1 U/kg body weight). Plasma glucose levels were measured at different time points as indicated.\nas §2"}, "[4]": {"conditions": "L6 myotubes, acute treatment within 2 hr (data not shown)"}, "[5]": {"conditions": "liver tissue of lipocalin-2-treated mice"}, "[6]": {"conditions": "skeletal muscle of lipocalin-2-treated mice"}, "[7]": {"conditions": "fasting, recombinant lipocalin-2 5 mg/kg i.p. twice a day, 4 weeks"}, "[8]": {"conditions": "recombinant lipocalin-2 5 mg/kg i.p. twice a day, 4 weeks"}}}
{"molecule": "CN(CCOc1ccc(CC2SC(=O)NC2=O)cc1)c1ccccn1", "note": "(centres unmarked) [rosiglitazone]", "values": [{"measurement": "Body Mass Index", "setting": "T2DM patients", "result": "25.5 ± 3.6", "unit": "Kg/m^2"}, {"measurement": "Fasting Glucose", "setting": "T2DM patients", "result": "6.8 ± 1.2", "unit": "mM"}, {"measurement": "Fasting Insulin", "setting": "T2DM patients", "result": "7.9 ± 3.5", "unit": "mIU/l"}, {"measurement": "HOMA-IR", "setting": "T2DM patients", "result": "2.4 ± 1.2"}, {"measurement": "Lipocalin-2 (serum level)", "setting": "T2DM patients", "result": "61.9 ± 25.9", "unit": "ng/mL"}]}
{"molecule": "B1", "values": [{"measurement": "basal glucose uptake", "setting": "L6 myotubes [1]; L6 myotubes at 48 hr after lipocalin-2 treatment", "result": "significantly decreased"}, {"measurement": "basal and insulin-stimulated glucose uptake, acute treatment", "setting": "L6 myotubes [1]; [4]", "result": "no obvious effects"}, {"measurement": "magnitude of insulin-stimulated increase in glucose uptake, versus untreated cells", "setting": "L6 myotubes [1]; L6 myotubes, lipocalin-2-treated, not statistically significant", "result": "slightly lower"}, {"measurement": "expression of glucose-6-phosphatase (G6P)", "setting": "[2]; [5]", "result": "modest, but significant increase"}, {"measurement": "expression of phosphoenolpyruvate carboxylase (PEPCK)", "setting": "[2]; [5]", "result": "modest, but significant increase"}, {"measurement": "expression of several genes involved in fatty acid transport, synthesis and oxidation", "setting": "[2]; [5]", "result": "did not modulate"}, {"measurement": "expression of GLUT1", "setting": "[2]; [6]", "result": "decreased"}, {"measurement": "expression of GLUT4, acetyl CoA carboxylase (ACO) and several other fatty acid transport proteins (FATP2, 3 and 5, and CD36)", "setting": "[2]; [6]", "result": "did not affect"}, {"measurement": "expression of acyl-CoA oxidase", "setting": "[2]; [6]", "result": "inhibited"}, {"measurement": "expression of uncoupling protein 2 (UCP2)", "setting": "[2]; [6]", "result": "inhibited"}, {"measurement": "steady-state mRNA level of fatty acid transport protein 1 (FATP-1)", "setting": "[2]; [6]", "result": "significantly increased"}, {"measurement": "steady-state mRNA level of fatty acid transport protein 4 (FATP-4)", "setting": "[2]; [6]", "result": "significantly increased"}, {"measurement": "triglyceride accumulation, increase compared with untreated cells", "setting": "L6 myotubes [3]; L6 myotubes at 72 hr following lipocalin-2 treatment, n=4, p<0.05", "result": "1.51±0.58", "unit": "folds"}, {"measurement": "fatty acid uptake and oxidation, acute treatment", "setting": "L6 myotubes [3]; [4]", "result": "no obvious effects"}, {"measurement": "fatty acid uptake", "setting": "L6 myotubes [3]; L6 myotubes, prolonged incubation with lipocalin-2 (24 h and 48 h), 3H-palmitate", "result": "significant increase"}, {"measurement": "rate of fatty acid oxidation", "setting": "L6 myotubes [3]; L6 myotubes, prolonged incubation with lipocalin-2 (24 h and 48 h), 14C-oleate", "result": "decrease"}, {"measurement": "daily average of serum lipocalin-2 levels, higher than that of the endogenous protein", "setting": "C57 mice; 5 mg protein/kg i.p. twice a day at 12 hr intervals", "result": "2.2-3.5 folds"}, {"measurement": "Plasma glucose", "setting": "C57 mice; [7]", "result": "137.4 ± 11.6", "unit": "mg/dL"}, {"measurement": "Plasma insulin", "setting": "C57 mice; [7]", "result": "1.5 ± 0.04", "unit": "ng/mL"}, {"measurement": "Serum TG", "setting": "C57 mice; [7]", "result": "93.9 ± 8.9", "unit": "mg/dL"}, {"measurement": "glucose tolerance (ipGTT)", "setting": "C57 mice; long-term lipocalin-2 treatment, day 24, 1 g glucose/kg i.p.", "result": "induced glucose intolerance"}, {"measurement": "insulin sensitivity (ITT)", "setting": "C57 mice; long-term lipocalin-2 treatment, day 26, insulin 1 U/kg i.p.", "result": "decreased insulin sensitivity"}, {"measurement": "Serum FFAs", "setting": "C57 mice; [8]", "result": "0.72 ± 0.08", "unit": "mmol/L"}, {"measurement": "Serum adiponectin", "setting": "C57 mice; [8]", "result": "7.9 ± 1.8", "unit": "µg/mL"}, {"measurement": "Serum total cholesterol", "setting": "C57 mice; [8]", "result": "101.4 ± 8.8", "unit": "mg/dL"}, {"measurement": "TG contents in liver", "setting": "C57 mice; [8]", "result": "6.9 ± 0.8", "unit": "mg/g tissue"}, {"measurement": "TG contents in muscle", "setting": "C57 mice; [8]", "result": "7.3 ± 0.8", "unit": "mg/g tissue"}]}
